Source: patent US20170022277A1 (NATIONAL RESEARCH COUNCIL OF CANADA, published 2017)
Where a chain is given by its changes, count along the chain named.

How the values were obtained:
[1] = molecular target: T1, recombinant human IGF1R extracellular fragment IGF1R^933-His (human, UniProt P08069 31-933); assay: SPR (BIACORE 3000), human IGF1R immobilized on CM5, 1:1 model
T1 construct: It holds the full alpha subunit, the furin site RKRR and most of the extracellular part of the beta subunit; Amine-coupled to a CM5 chip for SPR; also called recombinant extracellular portion of the human IGF1R fragment; not shown: His tag from pCDN4/myc-His vector
Method: Approximately 3000 Resonance Units (RU) of recombinant human IGF1R were immobilized on a Sensor chip CM5. Immobilization was carried out at a concentration of 10 μg/ml in 10 mM acetate at pH4.0 using the amine coupling kit supplied by the manufacturer. The remaining binding sites were blocked with 1 M ethanolamine pH 8.5. An ethanolamine blocked surface was used as a reference surface. For the binding studies, analyses were carried out at 25° C. in 10 mM HEPES, pH7.4 containing 150 mM NaCl, 3 mM EDTA and 0.005% surfactant P20 (Polyoxyethylenesorbitan; GE Healthcare). […] Surfaces were regenerated with 10 mM glycine pH 2.0 with a contact time of 24 seconds. Data were analyzed with BIAevaluation 4.1 software (GE Healthcare).

[2] = molecular target: T2, recombinant human Insulin Receptor (R&D systems) (human, UniProt P06213-2 28-944, limits assumed); assay: SPR, IGF1R-4 VHH (0.5 - 50nM) over immobilized recombinant human Insulin Receptor
T2 construct: extracellular domain; Bought protein; About 4000 RU immobilized on a CM5 chip; also called IR; recombinant extracellular portion of the human Insulin Receptor
T2 sequence (P06213 other isoform, or with tags, fused parts or gaps limits assumed): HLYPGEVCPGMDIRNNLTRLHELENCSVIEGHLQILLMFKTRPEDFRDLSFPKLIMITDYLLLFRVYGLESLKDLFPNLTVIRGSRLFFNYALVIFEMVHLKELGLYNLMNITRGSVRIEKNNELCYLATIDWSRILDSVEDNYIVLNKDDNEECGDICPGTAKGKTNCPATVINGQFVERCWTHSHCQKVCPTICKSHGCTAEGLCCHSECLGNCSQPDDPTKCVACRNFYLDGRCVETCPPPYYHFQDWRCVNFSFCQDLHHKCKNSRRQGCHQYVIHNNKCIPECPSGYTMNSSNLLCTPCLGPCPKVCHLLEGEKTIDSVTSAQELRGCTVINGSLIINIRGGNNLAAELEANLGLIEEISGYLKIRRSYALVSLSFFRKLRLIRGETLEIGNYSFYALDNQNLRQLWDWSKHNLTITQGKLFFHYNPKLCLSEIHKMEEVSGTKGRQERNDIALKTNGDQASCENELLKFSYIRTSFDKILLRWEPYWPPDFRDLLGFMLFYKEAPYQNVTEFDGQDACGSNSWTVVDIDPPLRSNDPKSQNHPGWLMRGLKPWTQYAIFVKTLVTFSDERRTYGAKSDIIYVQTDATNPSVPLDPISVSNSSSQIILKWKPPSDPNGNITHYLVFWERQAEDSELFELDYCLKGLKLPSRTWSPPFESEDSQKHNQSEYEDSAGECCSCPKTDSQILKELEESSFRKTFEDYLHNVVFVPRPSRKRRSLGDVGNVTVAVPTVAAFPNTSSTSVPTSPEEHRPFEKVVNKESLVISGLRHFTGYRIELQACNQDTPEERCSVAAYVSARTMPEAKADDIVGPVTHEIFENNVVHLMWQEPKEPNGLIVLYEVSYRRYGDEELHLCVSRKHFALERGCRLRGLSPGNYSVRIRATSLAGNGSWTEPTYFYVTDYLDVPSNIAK

T1 sequence (P08069 31-933): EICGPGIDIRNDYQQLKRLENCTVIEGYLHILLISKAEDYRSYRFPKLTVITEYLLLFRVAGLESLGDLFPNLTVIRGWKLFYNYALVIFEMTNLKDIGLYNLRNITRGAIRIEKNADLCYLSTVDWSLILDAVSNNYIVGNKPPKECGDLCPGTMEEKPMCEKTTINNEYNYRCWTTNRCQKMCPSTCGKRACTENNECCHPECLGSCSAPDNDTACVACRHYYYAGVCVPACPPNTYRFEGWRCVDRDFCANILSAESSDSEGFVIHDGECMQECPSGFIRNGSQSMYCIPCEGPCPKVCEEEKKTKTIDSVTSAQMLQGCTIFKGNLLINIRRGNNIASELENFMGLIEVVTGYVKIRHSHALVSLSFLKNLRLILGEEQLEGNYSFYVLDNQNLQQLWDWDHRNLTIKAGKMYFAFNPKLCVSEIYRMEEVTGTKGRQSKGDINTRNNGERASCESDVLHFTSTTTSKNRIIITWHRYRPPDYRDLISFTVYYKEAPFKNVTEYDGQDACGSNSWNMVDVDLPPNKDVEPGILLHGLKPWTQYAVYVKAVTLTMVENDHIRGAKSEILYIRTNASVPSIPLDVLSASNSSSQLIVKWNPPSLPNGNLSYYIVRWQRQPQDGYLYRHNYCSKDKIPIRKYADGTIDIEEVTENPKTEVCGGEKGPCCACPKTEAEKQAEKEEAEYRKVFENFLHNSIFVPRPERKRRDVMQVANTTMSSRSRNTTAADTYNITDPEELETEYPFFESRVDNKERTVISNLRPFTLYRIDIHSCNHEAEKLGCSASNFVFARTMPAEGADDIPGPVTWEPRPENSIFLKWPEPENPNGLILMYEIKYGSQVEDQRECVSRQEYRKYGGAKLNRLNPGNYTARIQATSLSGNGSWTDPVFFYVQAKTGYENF

B1: IGF1R-4_H4 (VHH)
VHH: QVQLVESGGGLVQPGGSLRLSCAVSGGTVSPTAMGWFRQAPGKGLEFVGHITWSRGTTRYASSVKGRFTISRDSSKNTVYLQMNSLRAEDTAVYYCAASTFLRILPEESAYTYWGQGTLVTVSS
notes: Humanized variant of IGF1R-4; expressed from pSJF2H in E. coli and purified by IMAC; any vector tag is not described
Kd [1]: 0.45 nM
koff [1]: 0.00039 s⁻¹

B2: IGF1R-4_H3 (VHH)
VHH: B1 VHH with S74N
notes: as for B1
Kd [1]: 0.39 nM
koff [1]: 0.00034 s⁻¹

B3: IGF1R-4 VHH (VHH)
VHH: QVKLEESGGGLVQAGGSLRLSCEVSGGTVSPTAMGWFRQAPGKEREFVGHITWSRGTTRVASSVKDRFTISRDSAKNTVYLQMNSLKSEDTAVYYCAASTFLRILPEESAYTYWGQGTQVTVSS
notes: Llama VHH, monomeric; Expressed from pSJF2H in TG1 E. coli and purified by IMAC; also called anti-IGF1R VHH IGF1R-4
Kd [1]: 0.32 nM
koff [1]: 0.00029 s⁻¹
binding result [2]: no binding (tested: 50 nM)

B4: IGF1R-4_H2 (VHH)
VHH: B1 VHH with F37V, F47W, S74N
notes: as for B1
Kd [1]: 1.07 nM
koff [1]: 0.00061 s⁻¹

B5: IGF1R-4_H5 (VHH)
VHH: B1 VHH with G44E, L45R
notes: as for B1
Kd [1]: 0.52 nM
koff [1]: 0.00046 s⁻¹
